Test results reported in the nanobody polyreactivity screen of Harvey et al. (2022).

Test: yeast display, Sf9 membrane polyspecificity reagent, FACS + sequencing; frameworks hold sequencing errors
Outline: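 A nanobody's polyreactivity label depends on the gate it was sorted from. Yeast display cells were stained with 10% biotinylated, detergent-solubilized Sf9 membrane reagent for 1 hour at 4 °C, enriched on streptavidin microbeads and sorted by FACS. The low and high (top ~1%) gates were set on anti-HA fluorescence for expression and streptavidin fluorescence for reagent binding.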

Sequence | polyreactivity (PSR sort gate)
QVQLVESGGGLVQAGGSLRLSCAASGRTFHSNAMGWYRQAPGKERELFAAISYSGGSTYYADSVKGRFTISRDNAKNTVYLQMNSLKPEDTAVYYCNAGAVHKKPARDYWGQGTKVTVSS | low polyreactivity
QVQLVESGGGLVQAGGSLRLSCAASGRTFHSNAMGWYRQAPGNDRELVASSRRGSRTYYADSVKGRFTISRDNAKNTVSLQLTSLKPEDTAVYYCAAAQVGYYVGSVTYGYWGQATQVTVSS | high polyreactivity
QVQLVESGGGLVQAGGSLRLSCAASGRTFHTYAMGWYRQAPGKERELVARITRSGTSTYYADSVKGRFTISRDNAKNTVYLQMNSLKPEDTAVYYCAKPWFLWGYSTSYDWGQGTQVTVSS | high polyreactivity
QVQLVESGGGLVQAGGSLRLSCAASGRTFHVYAMGWYRQAPGKERELVATITDGSTNYADSVKGRFTISRDNAKNTVYLQMNRLKPEDNAVYYCATVRDWIPSGDYEYWGQCTQVTVSS | low polyreactivity
QVQLVESGGGLVQAGGSLRLSCAASGRTFHWYAMGWYRQAPGKERELVAAIRYSAGSTYYADSVKGRFTISRDNAKNTVYLQMNSLKPEDTAVYYCAAEPYPYGPYYFLWLRYDYWGQGTQVTVSS | low polyreactivity
QVQLVESGGGLVQAGGSLRLSCAASGRTFHYNAMGWYRQAPGKERELVAAISFNGGGTYYADSVKGRFTISRDNAKNTVYLQMNSLKPEDTAVYYCNVDAAGSNSHARHDSWGQGTQVTVSS | low polyreactivity
QVQLVESGGGLVQAGGSLRLSCAASGRTFHYYAMGWYRQAPGKERELVAAISRGGNTYYADSVKGRFTISRDNAKNTVYLQMNSLKPEDTAVYYCAKDNHFEAYRYDYWGQGTQVTVSS | high polyreactivity
QVQLVESGGGLVQAGGSLRLSCAASGRTFHYYAMGWYRQAPGKERELVAAITSSGGSTYYADSVKGRFTISRDNANNTVYLQMNSLKPEDTAVYYFNAYSSYIKYDYWGQGTQVTVSS | high polyreactivity
QVQLVESGGGLVQAGGSLRLSCAASGRTFIANAMGWYRQAPGKERELVAVITLNGGSTYYADSVKGRFTISRDNAKSTVYLQMISLKPEDTAVYYCAAGRYYNLRATHGYWGQGTQVTVSS | low polyreactivity
QVQLVESGGGLVQAGGSLRLSCAASGRTFIAYGMGWYRQAPGKERELVAAISRNGASTYYADSVKGRFTISRDNAKNTVYLQMNSLKPEDNAVYYCAAGYIRSRGGRWTHSGYWGQGTQVTVSS | high polyreactivity
QVQLVESGGGLVQAGGSLRLSCAASGRTFIGYAMGWYRQAPGKERELVATISVSGGSTYYADSVKGRFTISRDNAKNTVYLQMNSLTPVDTAVYYCADDPRYLQSWRGEFAGESWGQGTQVTVAS | low polyreactivity
QVQLVESGGGLVQAGGSLRLSCAASGRTFIGYNMGWYRQAPGKERELVAAITWNGGRTYYADSVKGRFTISRDNAKNTVYLQMNSLKPEDTAVYYCAAPRRVVIGGGDYWGQGTQVTVSS | high polyreactivity
QVQLVESGGGLVQAGGSLRLSCAASGRTFIINGMGWYRQAPGKERELVAAITTSGGSTYYADSVKGRFTISRDNAKNTVYLQMNSLKPEDTAVYSCAADVFSRKYLYGDYDYWGQGTQVTVSS | high polyreactivity
QVQLVESGGGLVQAGGSLRLSCAASGRTFIQYAMGWYRQAPGKERELVAAISLSGGSTYYADSVKGRFTISRDNAKNTVYLQMNSLKPEDTAVYYCNAGYYWGQGTQVTVSS | high polyreactivity
QVQLVESGGGLVQAGGSLRLSCAASGRTFIRNAMGWYRQAPGKERELVAAITRSGGSTYYADSVKGRFTISRDNAKNTVYFQMNSLKPEDTAVYYCAAQPFYYLVGVPDDYWGQGTHVTVSS | low polyreactivity
QVQLVESGGGLVQAGGSLRLSCAASGRTFIWYAMGWYRQAPGKERELVAAISYSGASTYYADSVKGRFTNSRDNAKNTVYLQMNSLKPEDTAVYYCYPLGTYSYDYWGQGTQVTVSS | high polyreactivity
QVQLVESGGGLVQAGGSLRLSCAASGRTFIYYAMGWYRQAPGKEREFVAIISWNGTSTNYADSVKGRFTISRDKAKNTVYLQMNSLKPEDTAVYYCAASFWSDYYRYDYWGQGTQVTVSS | low polyreactivity
QVQLVESGGGLVQAGGSLRLSCAASGRTFKDYAMGWYRQAPGKERELVAAISWSGGDTYYADSVKGRFTISRDNAKNTVYLQMNRLKPEDTAVYYCNADPSGVFFYSLEFDYWGQGTQVTVSS | low polyreactivity
QVQLVESGGGLVQAGGSLRLSCAASGRTFKGYVMGWYRQAPGKERELVAAITYGGGSTYYADSVKGRFTISRDNAKNTVYLQMNSLKPEDTAVYYCAADSIYGTKYDYWGQGTQVTVSS | high polyreactivity
QVQLVESGGGLVQAGGSLRLSCAASGRTFKHNAMGWYRQAPGKERELVAAINQSGSSTYYADSVKGRFTISRDNAKNTVYLQMNSLKPEDTAVYYCAAGVFFFTFDYWGQGTQVTVSS | low polyreactivity
QVQLVESGGGLVQAGGSLRLSCAASGRTFKHYAMGWYRQAPGKERELVAGISRGGGITYYADSVKGRFTISRDNAKNTVYLQMNSLKPDDTAVYYCNAYDLYKSGGDYWGQGTQVTVSS | high polyreactivity
QVQLVESGGGLVQAGGSLRLSCAASGRTFKKYAMGWYRQAPGKEREMVAAITGSGGSTYYADSVKRRFTISRDNAKNTVYLQMNSLKPEDTAVYYCAAYAYGVWHSQDGGNYWGQGTQVTVSS | low polyreactivity

Sequence | polyreactivity (PSR sort gate)
QVQLVESGGGLVQAGGSLRLSCAASGRTFKLNAMGWYRQAPGKERELVAAISRNGGSTYYADSVKGRFTISRDNAKNTVYLQMTSLKPEDTAVYYCAAVRHGVSLAGYYWGQGTQVTVSS | high polyreactivity
QVQLVESGGGLVQAGGSLRLSCAASGRTFKLYAMGWYRQAPGKERELVAAITESGGSTYYAVSVKGRFTISRDNAKNTVYLQMNSLKPEDTAVYYCAAYASAGTRGGYDYWGQGTQVTVSS | low polyreactivity
QVQLVESGGGLVQAGGSLRLSCAASGRTFKRNAMGWYRQAPGKERELVAAISSDGRTNYADSVKGRFTISRDNAKNTVYLQMNSLKPEDTAVYYCAASYVLSYGTYYYWGQGTQVTVSS | low polyreactivity
QVQLVESGGGLVQAGGSLRLSCAASGRTFKRNAMGWYRQAPGKERELVAGISGSGTTTYYADSVKGRFTISRDNAKNTVYLQMNSLKPEDTAVYYCAARALSHGARYDYWGQGTQVTVSS | high polyreactivity
QVQLVESGGGLVQAGGSLRLSCAASGRTFKRYAMGWYRQAPGKERELVAAITWSGGNTYYADSVKGRFTISRDNAKNTVYLQINSLKPEDTAVYYCAAKGAGRRYDSWGQGTQVTVSS | high polyreactivity
QVQLVESGGGLVQAGGSLRLSCAASGRTFKSYAMGWYRQAPGKERELVAAISKRGGSTYYADSVKGRFTISRDNAKNTVYLQMNSLKPADTAVYYCNKLYLKPGRYYYWGQGTQVTVSS | high polyreactivity
QVQLVESGGGLVQAGGSLRLSCAASGRTFKVYAMGWYRQAPGKERELVAAITGGGSTNYADSVKGRFTISRDNAKNTVYLQMNSLKPEDTAVYYCNARYYYRLVKWSRFSSYDYWGQGTQVTVSS | low polyreactivity
QVQLVESGGGLVQAGGSLRLSCAASGRTFKYNAMAWYRQAPGTERELVADISYSGDSTYYADSVKGRFTISRDNAKNTVYLQMNSLKPEDTAVYYCNAVLTHGRLWRAHGYWGQGTQVTVSS | high polyreactivity
QVQLVESGGGLVQAGGSLRLSCAASGRTFKYNAMGWYRPAPGKERELVAAISSTGSTNYADSVKGRFTISRDNAKNTVYLQMNSLKPEDTAVYYCAASYFFVQWGWYYYWGQGTQVTVSS | low polyreactivity
QVQLVESGGGLVQAGGSLRLSCAASGRTFKYNAMGWYRQAPGKERELVAAIRKSGTRTYYADSVKGRFTISRDNAKNTVYLQMNSLKPEDTAVYYCNRVGFDYWGQGTQVTVSS | low polyreactivity
QVQLVESGGGLVQAGGSLRLSCAASGRTFKYNAMVWYRQAPGKERELVATISGSGGRKYYADSVKGRFTISRDNAKNTVYLQMNSLKPEDTAVYYCKAPRVKWLDWGQGTKVTVSS | high polyreactivity
QVQLVESGGGLVQAGGSLRLSCAASGRTFKYNSMGWYRQAPGKERELVAAITRSGSTYYADSVKGRFTISRDNAKNTVYLQMNSLKPEDTAVYYCNARIVNYGSYYYWGQGTQVTVSS | high polyreactivity
QVQLVESGGGLVQAGGSLRLSCAASGRTFKYNVMGWYRQAPGKERELVAAISSGGGTNYADSVKGRFTISRDNAKNTVYLQMNSLKPEDTAVYYCAAKYAWRLLEMYYWGQGTQVTVSS | low polyreactivity
QVQLVESGGGLVQAGGSLRLSCAASGRTFKYYAMGWYRQAPGKERELVAAISLSSGRTYYADSVKGRFTISRDIAKNTVYLQMNSLKPEDTAVYYCARVTTGGYEYWGQGTQVTVSS | high polyreactivity
QVQLVESGGGLVQAGGSLRLSCAASGRTFKYYAMGWYRQAPGKERELVAAISNGGRTNYADSVKGRFTISRDNAKNTVYLQMNSLKPEDTAVYYCAKRSFYFSDYDYWGQGTQVTVSS | high polyreactivity
QVQLVESGGGLVQAGGSLRLSCAASGRTFKYYAMGWYRQAPGKERELVATISFRGGSTYYADSVKGRFTISRDNAKNTVYLQMNSLKPEDTSVYYCARRQWSRRPDDYWGQGTQVTVSS | high polyreactivity
QVQLVESGGGLVQAGGSLRLSCAASGRTFKYYAMGWYRQAPGKERELVATITWSGTSTNYADSVKGRFTISRDTANNSVYLQMNSLKPEDTAVYYCAARSKRRNYDYWGQGTQVTVSS | high polyreactivity
QVQLVESGGGLVQAGGSLRLSCAASGRTFKYYTMGWYRQAPGKEREFVAAITSSGGRTYYADSVKGRFTISRDNAKNTVYLQMNSLKPEDTAVYYCAASTYRVWLAPATLSRYDYWGQGTQVTVSS | high polyreactivity
QVQLVESGGGLVQAGGSLRLSCAASGRTFKYYTMGWYRQAPGKERELVAAITGSGGSTYYADSVKGRFTISRDNAKNTVYLQMNSLKPEDTAVYYCAAYRTFSREYYYWGQGTQVTVSS | high polyreactivity
QVQLVESGGGLVQAGGSLRLSCAASGRTFLAIGWYRQAPGKETELVATINGSDGNTYYADSVKGRFTISRDNAENTVYLQMNILKPEDTAVYYCAKRADHTYLPLRPGYPEYNYWRQGTQVTVSS | low polyreactivity
QVQLVESGGGLVQAGGSLRLSCAASGRTFLDNAMGWYRQAPGKERELVAAISYSGGSTYYADSVKGRFTISRDNAKNTVYLQMNSLKPEDTAVYYCAADPRQYDYYLLAYDYWGQGTQVTVSS | low polyreactivity
